Columns and labels:
4H19-bA = target: T1, 4H19-bA; assay: two-hybrid library CCNG1;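 note: natural log of median RNA to DNA barcode read ratio; higher means stronger binding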
T1 chain: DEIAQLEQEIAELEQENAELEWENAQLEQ

4H2696-bA = target: T2, 4H2696-bA; assay: two-hybrid library CCNG1;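 note: natural log of median RNA to DNA barcode read ratio; higher means stronger binding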
T2 chain: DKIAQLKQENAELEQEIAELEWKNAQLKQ

4H2883-bA = target: T3, 4H2883-bA; assay: two-hybrid library CCNG1;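 note: natural log of median RNA to DNA barcode read ratio; higher means stronger binding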
T3 chain: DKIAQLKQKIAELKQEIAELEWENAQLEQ

4H2937-bA = target: T4, 4H2937-bA; assay: two-hybrid library CCNG1;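 note: natural log of median RNA to DNA barcode read ratio; higher means stronger binding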
T4 chain: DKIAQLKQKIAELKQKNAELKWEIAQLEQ

4H2944-bA = target: T5, 4H2944-bA; assay: two-hybrid library CCNG1;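 note: natural log of median RNA to DNA barcode read ratio; higher means stronger binding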
T5 chain: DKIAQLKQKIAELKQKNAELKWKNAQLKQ

4H342-bA = target: T6, 4H342-bA; assay: two-hybrid library CCNG1;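 note: natural log of median RNA to DNA barcode read ratio; higher means stronger binding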
T6 chain: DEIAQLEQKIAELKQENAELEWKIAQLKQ

4H48-bA = target: T7, 4H48-bA; assay: two-hybrid library CCNG1
T7 chain: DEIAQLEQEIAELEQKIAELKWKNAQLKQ

4H491-bA = target: T8, 4H491-bA; assay: two-hybrid library CCNG1
T8 chain: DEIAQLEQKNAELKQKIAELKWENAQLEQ

O10 = target: T9, O10; assay: two-hybrid library CC0; conditions: mean of both orientations
T9 chain: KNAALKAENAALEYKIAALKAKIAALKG

O11 = target: T10, O11; assay: two-hybrid library CC0; conditions: mean of both orientations
T10 chain: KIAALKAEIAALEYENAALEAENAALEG

O12 = target: T11, O12; assay: two-hybrid library CC0; conditions: mean of both orientations
T11 chain: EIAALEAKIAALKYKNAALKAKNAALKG

O13 = target: T12, O13; assay: two-hybrid library CC0; conditions: mean of both orientations
T12 chain: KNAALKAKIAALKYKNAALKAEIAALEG

O14 = target: T13, O14; assay: two-hybrid library CC0; conditions: mean of both orientations
T13 chain: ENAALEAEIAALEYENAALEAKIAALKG

O15 = target: T14, O15; assay: two-hybrid library CC0; conditions: mean of both orientations
T14 chain: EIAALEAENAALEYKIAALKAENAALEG

O16 = target: T15, O16; assay: two-hybrid library CC0; conditions: mean of both orientations
T15 chain: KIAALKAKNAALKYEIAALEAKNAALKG

O1 = target: T16, O1; assay: two-hybrid library CC0; conditions: mean of both orientations
T16 chain: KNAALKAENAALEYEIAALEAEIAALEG

O2 = target: T17, O2; assay: two-hybrid library CC0; conditions: mean of both orientations
T17 chain: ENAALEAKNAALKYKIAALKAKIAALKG

O3 = target: T18, O3; assay: two-hybrid library CC0; conditions: mean of both orientations
T18 chain: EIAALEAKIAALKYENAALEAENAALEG

O4 = target: T19, O4; assay: two-hybrid library CC0; conditions: mean of both orientations
T19 chain: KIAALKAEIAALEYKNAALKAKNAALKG

O5 = target: T20, O5; assay: two-hybrid library CC0; conditions: mean of both orientations
T20 chain: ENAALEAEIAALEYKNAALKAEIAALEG

O6 = target: T21, O6; assay: two-hybrid library CC0; conditions: mean of both orientations
T21 chain: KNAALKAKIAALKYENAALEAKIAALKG

O7 = target: T22, O7; assay: two-hybrid library CC0; conditions: mean of both orientations
T22 chain: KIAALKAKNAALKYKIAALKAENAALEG

O8 = target: T23, O8; assay: two-hybrid library CC0; conditions: mean of both orientations
T23 chain: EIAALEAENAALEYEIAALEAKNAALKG

O9 = target: T24, O9; assay: two-hybrid library CC0; conditions: mean of both orientations
T24 chain: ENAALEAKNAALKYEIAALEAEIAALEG

P2-AA-1HGe-A = target: T25, P2-AA-1HGe-A; assay: two-hybrid library CCmax; conditions: mean of both orientations
T25 chain: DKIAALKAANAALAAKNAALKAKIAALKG

P2-AA-1HGe-D = target: T26, P2-AA-1HGe-D; assay: two-hybrid library CCmax; conditions: mean of both orientations
T26 chain: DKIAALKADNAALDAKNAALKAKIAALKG

P2-AA-1HGe-M = target: T27, P2-AA-1HGe-M; assay: two-hybrid library CCmax; conditions: mean of both orientations
T27 chain: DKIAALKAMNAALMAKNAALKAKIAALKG

P2-AA-1HGe-Q = target: T28, P2-AA-1HGe-Q; assay: two-hybrid library CCmax; conditions: mean of both orientations
T28 chain: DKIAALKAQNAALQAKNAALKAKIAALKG

P2-AA-1HGe-S = target: T29, P2-AA-1HGe-S; assay: two-hybrid library CCmax; conditions: mean of both orientations
T29 chain: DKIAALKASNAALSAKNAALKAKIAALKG

P2-AA-1HGe-T = target: T30, P2-AA-1HGe-T; assay: two-hybrid library CCmax; conditions: mean of both orientations
T30 chain: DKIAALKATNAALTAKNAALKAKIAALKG

P2-AA = target: T31, P2-AA; assay: two-hybrid library CCmax; conditions: mean of both orientations
T31 chain: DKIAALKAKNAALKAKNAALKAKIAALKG

4H2608-AA = target: T32, 4H2608-AA; assay: two-hybrid library CCmax
T32 chain: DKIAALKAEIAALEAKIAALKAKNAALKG

4H2614-AA = target: T33, 4H2614-AA; assay: two-hybrid library CCmax; conditions: mean of both orientations
T33 chain: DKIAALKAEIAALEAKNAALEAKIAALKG

4H2726-AA = target: T34, 4H2726-AA; assay: two-hybrid library CCmax; conditions: mean of both orientations
T34 chain: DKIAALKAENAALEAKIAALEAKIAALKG

4H2935-AA = target: T35, 4H2935-AA; assay: two-hybrid library CCmax; conditions: mean of both orientations
T35 chain: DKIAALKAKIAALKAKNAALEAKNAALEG

4H327-AA = target: T36, 4H327-AA; assay: two-hybrid library CCmax; conditions: mean of both orientations
T36 chain: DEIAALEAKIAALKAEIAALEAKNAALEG

4H3605-AA = target: T37, 4H3605-AA; assay: two-hybrid library CCmax; conditions: mean of both orientations
T37 chain: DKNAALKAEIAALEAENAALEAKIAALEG

4H3625-AA = target: T38, 4H3625-AA; assay: two-hybrid library CCmax; conditions: mean of both orientations
T38 chain: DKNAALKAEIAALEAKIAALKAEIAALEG

4H3664-AA = target: T39, 4H3664-AA; assay: two-hybrid library CCmax; conditions: mean of both orientations
T39 chain: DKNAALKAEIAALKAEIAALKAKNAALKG

4H369-AA = target: T40, 4H369-AA; assay: two-hybrid library CCmax
T40 chain: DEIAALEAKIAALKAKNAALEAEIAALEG

4H3922-AA = target: T41, 4H3922-AA; assay: two-hybrid library CCmax; conditions: mean of both orientations
T41 chain: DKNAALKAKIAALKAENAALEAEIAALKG

4H4033-AA = target: T42, 4H4033-AA; assay: two-hybrid library CCmax; conditions: mean of both orientations
T42 chain: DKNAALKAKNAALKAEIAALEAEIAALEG

4H481-AA = target: T43, 4H481-AA; assay: two-hybrid library CCmax; conditions: mean of both orientations
T43 chain: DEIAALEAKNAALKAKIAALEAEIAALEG

4H55-AA = target: T44, 4H55-AA; assay: two-hybrid library CCmax; conditions: mean of both orientations
T44 chain: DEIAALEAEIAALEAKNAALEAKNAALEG

4H662-AA = target: T45, 4H662-AA; assay: two-hybrid library CCmax; conditions: mean of both orientations
T45 chain: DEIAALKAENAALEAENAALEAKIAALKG

Core_IIIN-es_EKEE = target: T46, Core_IIIN-es_EKEE; assay: two-hybrid library CCmax; conditions: mean of both orientations
T46 chain: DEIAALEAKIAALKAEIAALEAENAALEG

P6SC2R [1] = target: T47, P6SC2R; assay: two-hybrid library CCNG1
T47 chain: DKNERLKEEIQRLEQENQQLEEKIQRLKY

P6SC2R [2] = target: T47, P6SC2R; assay: two-hybrid library CCmax
Core_NNIN-es_KEEK = target: T48, Core_NNIN-es_KEEK; assay: two-hybrid library CCmax; conditions: mean of both orientations
T48 chain: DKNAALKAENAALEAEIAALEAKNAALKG

Core_NNNI-es_KEKK = target: T49, Core_NNNI-es_KEKK; assay: two-hybrid library CCmax; conditions: mean of both orientations
T49 chain: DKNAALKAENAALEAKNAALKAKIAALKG

Core_NNNN-es_KKEK = target: T50, Core_NNNN-es_KKEK; assay: two-hybrid library CCmax; conditions: mean of both orientations
T50 chain: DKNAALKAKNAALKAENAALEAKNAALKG

Core_NINN-es_KKEE = target: T51, Core_NINN-es_KKEE; assay: two-hybrid library CCmax; conditions: mean of both orientations
T51 chain: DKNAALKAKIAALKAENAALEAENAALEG

Core_NINN-es_KEEK = target: T52, Core_NINN-es_KEEK; assay: two-hybrid library CCmax; conditions: mean of both orientations
T52 chain: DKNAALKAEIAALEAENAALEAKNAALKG

Core_NNNI-es_KEEE = target: T53, Core_NNNI-es_KEEE; assay: two-hybrid library CCmax; conditions: mean of both orientations
T53 chain: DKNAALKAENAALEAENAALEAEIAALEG

Core_NIIN-es_KEEK = target: T54, Core_NIIN-es_KEEK; assay: two-hybrid library CCmax; conditions: mean of both orientations
T54 chain: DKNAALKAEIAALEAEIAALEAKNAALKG

Core_IINN-es_KKEK = target: T55, Core_IINN-es_KKEK; assay: two-hybrid library CCmax; conditions: mean of both orientations
T55 chain: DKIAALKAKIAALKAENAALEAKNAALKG

Core_NNNN-es_KEKK = target: T56, Core_NNNN-es_KEKK; assay: two-hybrid library CCmax; conditions: mean of both orientations
T56 chain: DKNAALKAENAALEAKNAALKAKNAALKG

B1: 4H19-bA (peptide)
chain: DEIAQLEQEIAELEQENAELEWENAQLEQ
- interaction score (4H19-bA): -0.446
- interaction score (4H2696-bA): -1.13
- interaction score (4H2883-bA): -0.0858
- interaction score (4H2937-bA): 1.86
- interaction score (4H2944-bA): 2.54
- interaction score (4H342-bA): -0.577
- interaction score (4H48-bA): -0.828
- interaction score (4H491-bA): -1.22

B2: O1 (peptide)
chain: KNAALKAENAALEYEIAALEAEIAALEG
- interaction score (O10): -0.97
- interaction score (O11): -2.7
- interaction score (O12): -2.64
- interaction score (O13): -2.57
- interaction score (O14): -2.71
- interaction score (O15): -2.7
- interaction score (O16): -2.65
- interaction score (O1): -2.74
- interaction score (O2): 1.37
- interaction score (O3): -2.76
- interaction score (O4): -2.68
- interaction score (O5): -2.77
- interaction score (O6): -2.76
- interaction score (O7): -2.69
- interaction score (O8): -2.67
- interaction score (O9): -2.49

B3: P1-AA-1HGe-A (peptide)
chain: DEIAALEAANAALAAENAALEAEIAALEG
- interaction score (P2-AA-1HGe-A): 1.85
- interaction score (P2-AA-1HGe-D): 1.82
- interaction score (P2-AA-1HGe-M): 2.12
- interaction score (P2-AA-1HGe-Q): 1.88
- interaction score (P2-AA-1HGe-S): 2.24
- interaction score (P2-AA-1HGe-T): 1.54
- interaction score (P2-AA): 1.57

B4: 4H2608-AA (peptide)
chain: DKIAALKAEIAALEAKIAALKAKNAALKG
- interaction score (4H2608-AA): -0.193
- interaction score (4H2614-AA): -0.644
- interaction score (4H2726-AA): -0.998
- interaction score (4H2935-AA): -0.712
- interaction score (4H327-AA): 1.83
- interaction score (4H3605-AA): -0.648
- interaction score (4H3625-AA): 1.92
- interaction score (4H3664-AA): -0.787
- interaction score (4H369-AA): 0.124
- interaction score (4H3922-AA): -1.39
- interaction score (4H4033-AA): -0.845
- interaction score (4H481-AA): 1.33
- interaction score (4H55-AA): -0.255
- interaction score (4H662-AA): -1.55
- interaction score (Core_IIIN-es_EKEE): 1.53

B5: P5SC1Q (peptide)
chain: DENSQLEEKISQLKQKNSRLKEEIQRLEY
- interaction score (P6SC2R [1]): 1.2
- interaction score (P6SC2R [2]): 1.06

B6: Core_NNIN-es_EKKE (peptide)
chain: DENAALEAKNAALKAKIAALKAENAALEG
- interaction score (Core_NNIN-es_KEEK): 1.39

B7: Core_NNNI-es_EKEE (peptide)
chain: DENAALEAKNAALKAENAALEAEIAALEG
- interaction score (Core_NNNI-es_KEKK): 2.11

B8: Core_NNNN-es_EEKE (peptide)
chain: DENAALEAENAALEAKNAALKAENAALEG
- interaction score (Core_NNNN-es_KKEK): 0.00657

B9: Core_NINN-es_EEKK (peptide)
chain: DENAALEAEIAALEAKNAALKAKNAALKG
- interaction score (Core_NINN-es_KKEE): 1.6

B10: Core_NINN-es_EKKE (peptide)
chain: DENAALEAKIAALKAKNAALKAENAALEG
- interaction score (Core_NINN-es_KEEK): 1.86

B11: Core_NNNI-es_EKKK (peptide)
chain: DENAALEAKNAALKAKNAALKAKIAALKG
- interaction score (Core_NNNI-es_KEEE): 1.91

B12: Core_NIIN-es_EKKE (peptide)
chain: DENAALEAKIAALKAKIAALKAENAALEG
- interaction score (Core_NIIN-es_KEEK): 2.22

B13: Core_IINN-es_EEKE (peptide)
chain: DEIAALEAEIAALEAKNAALKAENAALEG
- interaction score (Core_IINN-es_KKEK): 2.21

B14: Core_NNNN-es_EKEE (peptide)
chain: DENAALEAKNAALKAENAALEAENAALEG
- interaction score (Core_NNNN-es_KEKK): 0.346
